According to patent US20190352390A1:
Substitutions are numbered along the chain they refer to. One block for each binder: values may come before it.

Biological target: IL-37 expressed by splenocytes of IL-37 transgenic (IL-37tg) mice (human), Q9NZH6
Test: cell-based or functional assay

Sequence of IL-37 expressed by splenocytes of IL-37 transgenic (IL-37tg) mice (human), Q9NZH6 (Q9NZH6 whole entry): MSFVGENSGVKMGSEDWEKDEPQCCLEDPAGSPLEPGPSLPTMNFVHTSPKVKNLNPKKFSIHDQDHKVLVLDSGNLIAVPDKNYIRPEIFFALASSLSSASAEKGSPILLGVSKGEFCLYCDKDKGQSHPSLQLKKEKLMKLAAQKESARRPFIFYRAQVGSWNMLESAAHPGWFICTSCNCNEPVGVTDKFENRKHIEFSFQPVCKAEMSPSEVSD

- IL-6 abundance in supernatant of LPS-stimulated IL-37tg mouse splenocytes (ELISA): < 40%
B1: Antibody RF3 (antibody, V domains shown)
VL: DVVMTQTPLSLPVSLGDQASISCRSSQSLVHSNGNTYLHWYLQKPGQSPKLLIYIVSNRFSGVPDRFGGSGSGTDFTLKISRVEAEDLGVYFCSQSTHIPYTFGGGTKLEMK
VH: QVQLQQPGAELVRPGASVKLSCKASGYTFTNYWMNWWKQRPGQGLEWIGMIDPSDSETHYNQVFKDKATLTVDISSTTAYMHLSSLTSEDSAVYYCARDFGWGQGTLVTVSA

- IL-6 abundance in supernatant of LPS-stimulated IL-37tg mouse splenocytes (ELISA): < 40%
B2: Antibody RF1 (antibody, V domains shown)
VL: B1 VL with I21M, N35D, T36S, I55K, F60L, G68S, V90I, I99V, M111I
VH: QVQLQQPGAELVKPGASVKMSCKASGYTFTNYWLHWVMQRPGQGLEWIGMIDPSDSFTTYNQKFKGKATLTVDTSSSTAFMQLSSLTSEDSAVYYCTTVDHWGRGTTLTVSS
